In patent publication US20130195872A1 (NOVIMMUNE S A, published 2013):
Numbering of substitutions follows the chain as printed.

Assays:
human IL-17A homodimer [1] = molecular target: T1, human IL-17A homodimer (human, UniProt Q16552 20-155, limits assumed); assay: cell-based or functional assay
T1 sequence (looked up): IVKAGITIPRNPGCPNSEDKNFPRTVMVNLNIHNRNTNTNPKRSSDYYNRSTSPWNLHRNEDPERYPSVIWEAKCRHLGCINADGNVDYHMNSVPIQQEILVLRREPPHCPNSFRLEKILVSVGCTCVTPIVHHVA

[2] = molecular target: T2, human IL-17A/IL-17F heterodimer (human, UniProt Q16552 24-155; Q96PD4 31-163, limits assumed); assay: cell-based or functional assay
T2 sequence (looked up) 1: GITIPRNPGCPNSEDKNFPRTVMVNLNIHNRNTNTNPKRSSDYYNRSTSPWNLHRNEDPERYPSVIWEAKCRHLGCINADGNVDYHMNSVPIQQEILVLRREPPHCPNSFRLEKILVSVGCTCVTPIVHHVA
T2 sequence (looked up) 2: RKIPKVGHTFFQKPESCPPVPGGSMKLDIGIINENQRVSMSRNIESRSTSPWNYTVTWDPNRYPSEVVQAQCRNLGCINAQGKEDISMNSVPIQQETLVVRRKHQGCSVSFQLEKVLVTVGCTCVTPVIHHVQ

[3] = molecular target: T3, cynomolgus IL-17F homodimer (cynomolgus, UniProt G7P4V0 31-163); assay: cell-based or functional assay
T3 sequence: T2 sequence (looked up) 2 with G22E, I29T, R73K, N74H, V100L, I129V

[4] = molecular target: T4, cynomolgus IL-17A homodimer (cynomolgus, UniProt A0A2K5TTB0 20-155); assay: cell-based or functional assay
T4 sequence: T1 sequence (looked up) with T7A, P12S, N38S, I81V, N82K, P108R

[5] = molecular target: cynomolgus IL-17A/IL-17F heterodimer (cynomolgus); assay: cell-based or functional assay
rat IL-17A homodimer = molecular target: T5, rat IL-17A homodimer (rat, UniProt Q61453 18-150, limits assumed); assay: cell-based or functional assay
T5 sequence (looked up): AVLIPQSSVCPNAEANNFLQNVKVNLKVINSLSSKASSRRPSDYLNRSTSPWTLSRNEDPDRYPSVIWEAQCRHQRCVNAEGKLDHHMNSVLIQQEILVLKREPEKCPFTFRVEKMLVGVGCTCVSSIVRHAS

human IL-17A homodimer [6] = molecular target: T1, human IL-17A homodimer; assay: cell-based or functional assay; remark: listed apart in the source
[7] = molecular target: T4, cynomolgus IL-17A homodimer; assay: cell-based or functional assay; remark: listed apart in the source
human IL-17A homodimer [8] = molecular target: T1, human IL-17A homodimer; assay: SPR Biacore, mAb captured, cytokine as analyte
Description: (§1) The affinity and binding kinetics of huIL-17F cross-reactive antibodies were characterized on a Biacore 2000 instrument (Biacore AB, Uppsala, Sweden). […] This surface was used to capture huIL-17A/F antibodies. The surface was regenerated after each cycle by injection of 10 mM glycine pH=1.5 at 20 μL/min, for 30 s followed by 1 min of stabilization time in HBS-EP buffer (Biacore AB, Uppsala, Sweden).
(§2) All solutions were diluted in HBS-EP buffer. Injection was performed at 75 μl/min for 3 min followed by 12 min of dissociation time and the temperature was set at 25° C.

[9] = molecular target: T2, human IL-17A/IL-17F heterodimer; assay: SPR Biacore, mAb captured, cytokine as analyte
Description: as §1, §2

[10] = molecular target: T3, cynomolgus IL-17F homodimer; assay: FLISA, cytokine on beads
Description: (§3) After an incubation period of 2 to 8 hours the fluorescence of the beads was measured in an 8200 Cellular Detection System analyzer (Applied Biosystems). Hybridomas producing human IgGs that bound to huIL-17F, huIL-17A or both huIL-17F and huIL-17A, but not to BSA, were expanded and subjected to further analysis.
(§4) huIL-17F antibodies were tested for their ability to bind to the other members of the IL-17 family of cytokines, as well as to IL-17A and IL-17F from other species. The assay was performed in the FLISA format, as described above.

[11] = molecular target: T4, cynomolgus IL-17A homodimer; assay: FLISA, cytokine on beads
Description: as §3, §4

mouse IL-17F homodimer = molecular target: T6, mouse IL-17F homodimer (mouse, UniProt Q7TNI7 29-161, limits assumed); assay: cell-based or functional assay
T6 sequence (looked up): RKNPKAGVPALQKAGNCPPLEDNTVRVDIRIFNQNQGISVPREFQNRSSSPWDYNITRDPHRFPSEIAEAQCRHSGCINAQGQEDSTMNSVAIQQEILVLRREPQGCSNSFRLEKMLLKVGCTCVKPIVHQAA

mouse IL-17A homodimer = molecular target: T7, mouse IL-17A homodimer (mouse, UniProt Q62386 26-158, limits assumed); assay: cell-based or functional assay
T7 sequence (looked up): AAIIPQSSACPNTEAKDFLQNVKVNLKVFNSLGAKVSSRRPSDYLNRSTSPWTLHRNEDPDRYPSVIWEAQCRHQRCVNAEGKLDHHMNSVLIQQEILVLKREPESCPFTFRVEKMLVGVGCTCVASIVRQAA

B1: 30D12 antibody (antibody, IgG1, V domains shown)
VH: QVQLVQSGAEVKKPGASVKVSCKASGYTFTSYDINWVRQATGQGLEWMGWMNPDSGVIRYAQKFQGRVTMTRNTSISTAYMELNSLRSEDTAVYYCAREWFGELPSYYFYSGMDVWGQGTTVTVSS
VL: EIVLTQSPATLSLSPGERATLSCRASQSVSSYLAWYQQKPGQAPRLLIYDASNRATGIPARFSGSGSGTDFTLTISSLEPEDFAVYYCQQRSNWPPTFGPGTKVDIK
notes: Fully human monoclonal antibody; also called 30D12 IgG1
Human IL-17A homodimer [1]
  IC50, IL-6 secretion by MEF cells, cytokine at 5 ng/ml: 1.1 nM
[2]
  IC50, IL-6 secretion by MEF cells, cytokine at 17.5 ng/ml: 31 nM
[3]
  IC50, IL-6 secretion by MEF cells, cytokine at 25 ng/ml: 130 nM
[4]
  IC50, IL-6 secretion by MEF cells, cytokine at 5 ng/ml: 3 nM
[5]
  IC50, IL-6 secretion by MEF cells, cytokine at 25 ng/ml: 15 nM
Rat IL-17A homodimer
  IC50, IL-6 secretion by MEF cells, cytokine at 5 ng/ml: > 1000 nM
Human IL-17A homodimer [6]
  IC50, IL-6 secretion by HFFF2 human fibroblasts, cytokine at 25 ng/ml: 4.2 nM
[7]
  IC50, IL-6 secretion by HFFF2 human fibroblasts, cytokine at 25 ng/ml: 6.6 nM
Human IL-17A homodimer [8]
  Kd: 0.0594 nM
[9]
  Kd: 0.0981 nM

B2: 38B1 antibody (antibody, IgG1, V domains shown)
VH: EVQLVESGGGLVQPGRSLRLSCAASGFTFDDFAMHWVRQAPGKGLEWVSGINWNSGSIGYADSVKGRFTISRDNAKNSLYLQMNSLRAEDTALYYCAKDIAAAGEFYFDMDVWGQGTTVTVSS
VL: B1 VL with P100Q, V104L, D105E
notes: also called 38B1 IgG1
Human IL-17A homodimer [1]
  IC50, IL-6 secretion by MEF cells, cytokine at 5 ng/ml: > 1000 nM
[2]
  IC50, IL-6 secretion by MEF cells, cytokine at 17.5 ng/ml: 910 nM
[10]
  binding result: binds
[11]
  binding result: binds

B3: 12B12 antibody (antibody, IgG4, V domains shown)
VH: QVQLVQSGAEVKKPGSSVKVSCKASGGTLSSYAFSWVRQAPGQGLEWMGGIIPFFGTVNYAQKFQGRVTITADESTNTAYMELSSLRSEDTAVYYCARDRDYYGLGSPLHYYGLDVWGQGTTVTVSS
VL: EIVLTQSPDFQSVTPKEKVTITCRASQSIGSSLHWYQQKPDQSPKLLIKYASQSFSGVPSRFSGSGSGTDFTLTINSLEAEDAAAYYCHQSSSLPWTFGQGTKVEIK
Human IL-17A homodimer [1]
  IC50, IL-6 secretion by MEF cells, cytokine at 5 ng/ml: 33 nM
[2]
  IC50, IL-6 secretion by MEF cells, cytokine at 17.5 ng/ml: 13 nM
[3]
  IC50, IL-6 secretion by MEF cells, cytokine at 25 ng/ml: 3.2 nM
[4]
  IC50, IL-6 secretion by MEF cells, cytokine at 5 ng/ml: 13 nM
Mouse IL-17F homodimer
  IC50, IL-6 secretion by MEF cells, cytokine at 50 ng/ml: 4.2 nM
Mouse IL-17A homodimer
  IC50, IL-6 secretion by MEF cells, cytokine at 5 ng/ml: > 1000 nM
Rat IL-17A homodimer
  IC50, IL-6 secretion by MEF cells, cytokine at 5 ng/ml: > 1000 nM

B4: 39F12 antibody (antibody, IgG4, V domains shown)
VH: B3 VH with V58T, T69I, S85G, L109F, H110Y, L114M
VL: B3 VL
notes: also called Mab06a; 39F12 IgG4
Human IL-17A homodimer [1]
  IC50, IL-6 secretion by MEF cells, cytokine at 5 ng/ml: 9.8 nM
[2]
  IC50, IL-6 secretion by MEF cells, cytokine at 17.5 ng/ml: 11 nM
[3]
  IC50, IL-6 secretion by MEF cells, cytokine at 25 ng/ml: 5.2 nM
[4]
  IC50, IL-6 secretion by MEF cells, cytokine at 5 ng/ml: 4.7 nM
[5]
  IC50, IL-6 secretion by MEF cells, cytokine at 25 ng/ml: 16 nM
Mouse IL-17F homodimer
  IC50, IL-6 secretion by MEF cells, cytokine at 50 ng/ml: 4 nM
Mouse IL-17A homodimer
  IC50, IL-6 secretion by MEF cells, cytokine at 5 ng/ml: > 1000 nM
Rat IL-17A homodimer
  IC50, IL-6 secretion by MEF cells, cytokine at 5 ng/ml: > 1000 nM
Human IL-17A homodimer [6]
  IC50, IL-6 secretion by HFFF2 human fibroblasts, cytokine at 25 ng/ml: 14 nM
[7]
  IC50, IL-6 secretion by HFFF2 human fibroblasts, cytokine at 25 ng/ml: 15 nM
Human IL-17A homodimer [8]
  Kd: 0.0895 nM
[9]
  Kd: 0.402 nM

B5: 15B7 antibody (antibody, IgG4, V domains shown)
VH: B3 VH with V58A, N59H, L105S, L109F, Y111F, Y112S
VL: B3 VL
Human IL-17A homodimer [1]
  IC50, IL-6 secretion by MEF cells, cytokine at 5 ng/ml: 180 nM
[2]
  IC50, IL-6 secretion by MEF cells, cytokine at 17.5 ng/ml: 160 nM
[3]
  IC50, IL-6 secretion by MEF cells, cytokine at 25 ng/ml: 15 nM
[4]
  IC50, IL-6 secretion by MEF cells, cytokine at 5 ng/ml: 140 nM
Mouse IL-17F homodimer
  IC50, IL-6 secretion by MEF cells, cytokine at 50 ng/ml: 22 nM
Mouse IL-17A homodimer
  IC50, IL-6 secretion by MEF cells, cytokine at 5 ng/ml: > 1000 nM
Rat IL-17A homodimer
  IC50, IL-6 secretion by MEF cells, cytokine at 5 ng/ml: > 1000 nM

B6: 29D8 antibody (antibody, IgG1, V domains shown)
VH: QVQLVQSGAEVKKPGASVKVSCKAFAYTFSTYGISWVRQAPGQGLEWMGWISAYNSNTNYAQKVQGRITMTTDTSTRTAYMELRGLRSDDTAVYFCATFFGGHSGYHYGLDVWGQGTTVTVSS
VL: EIVLTQSPATLSLSPGERATLSCRASQSVSSYLAWYQQKPGQAPRLLIYDASNRATGIPARFSGSGSGTDFTLTISSLEPEDFAVYYCQQRSNWPPYTFGQGTKLEIK
Human IL-17A homodimer [1]
  IC50, IL-6 secretion by MEF cells, cytokine at 5 ng/ml: 40 nM
[2]
  IC50, IL-6 secretion by MEF cells, cytokine at 17.5 ng/ml: 1.1 nM
[3]
  IC50, IL-6 secretion by MEF cells, cytokine at 25 ng/ml: 3.6 nM
[4]
  IC50, IL-6 secretion by MEF cells, cytokine at 5 ng/ml: 8.4 nM
[5]
  IC50, IL-6 secretion by MEF cells, cytokine at 25 ng/ml: 0.56 nM
Human IL-17A homodimer [6]
  IC50, IL-6 secretion by HFFF2 human fibroblasts, cytokine at 25 ng/ml: 36 nM

B7: 1E4 antibody (antibody, IgG4, V domains shown)
VH: QVQLVQSGAEVKKPGASVKVSCKASVYTFTTYGISWVRQAPGQGLEWMGWISVYNGNTNYGQNFQGRVSMTTDTSTSTAYMELRSLRSDDTAVYYCASFHGGHSGYHYGLDVWGQGTTVTVSS
VL: B6 VL
Human IL-17A homodimer [1]
  IC50, IL-6 secretion by MEF cells, cytokine at 5 ng/ml: 480 nM
[2]
  IC50, IL-6 secretion by MEF cells, cytokine at 17.5 ng/ml: 16 nM
[3]
  IC50, IL-6 secretion by MEF cells, cytokine at 25 ng/ml: 3.4 nM
[4]
  IC50, IL-6 secretion by MEF cells, cytokine at 5 ng/ml: 330 nM

B8: 31A3 antibody (antibody, IgG1, V domains shown)
VH: B7 VH with S52T, G61A, N63K, Q65H, S69T
VL: B6 VL
[2]
  IC50, IL-6 secretion by MEF cells, cytokine at 17.5 ng/ml: 9.2 nM
[3]
  IC50, IL-6 secretion by MEF cells, cytokine at 25 ng/ml: 4.2 nM
[4]
  IC50, IL-6 secretion by MEF cells, cytokine at 5 ng/ml: 290 nM

B9: 15E6 antibody (antibody, IgG4, V domains shown)
VH: EVQLVESGGGLVQPGRSLRLSCAASGFTFDDYAMHWVRQAPGKGLEWVSGINWNSGGIGYADSVKGRFTISRDNAKNSLYLQMNSLRAEDTALYYCARDMGGFGEFYWNFGLWGRGTLVTVSS
VL: not shown
notes: also called 15E6 IgG4
Human IL-17A homodimer [1]
  IC50, IL-6 secretion by MEF cells, cytokine at 5 ng/ml: 1.6 nM
[2]
  IC50, IL-6 secretion by MEF cells, cytokine at 17.5 ng/ml: 1.1 nM
[3]
  IC50, IL-6 secretion by MEF cells, cytokine at 25 ng/ml: 1.4 nM
[4]
  IC50, IL-6 secretion by MEF cells, cytokine at 5 ng/ml: 2 nM
[5]
  IC50, IL-6 secretion by MEF cells, cytokine at 25 ng/ml: 0.18 nM
Mouse IL-17F homodimer
  IC50, IL-6 secretion by MEF cells, cytokine at 50 ng/ml: > 1000 nM
Human IL-17A homodimer [6]
  IC50, IL-6 secretion by HFFF2 human fibroblasts, cytokine at 25 ng/ml: 3.9 nM
[7]
  IC50, IL-6 secretion by HFFF2 human fibroblasts, cytokine at 25 ng/ml: 4.5 nM
Human IL-17A homodimer [8]
  Kd: 0.0364 nM
[9]
  Kd: 0.0447 nM

B10: 8B11 antibody (antibody, IgG3, V domains shown)
VH: EVQLVESGGGLVHPGGSLRLSCAASGFTFSSFNMDWVRQAPGKGLEWVSSISTTSRIIYSADSVKGRFTISRDNARNSLYLQMNSLRDEDTAVYYCARVSYYGHGFDYWGQGTLVTVSS
VL: DIQMTQSPSSLSASVGDRVTITCRASQGISSWLAWYQQKPEKAPKSLIYAASSLQSGVPSRFSGSGSGTDFTLTISSLQPEDFATYYCQQYNSYPLTFGGGTKVEIK
Human IL-17A homodimer [1]
  IC50, IL-6 secretion by MEF cells, cytokine at 5 ng/ml: 100 nM
[2]
  IC50, IL-6 secretion by MEF cells, cytokine at 17.5 ng/ml: 240 nM
[3]
  IC50, IL-6 secretion by MEF cells, cytokine at 25 ng/ml: 50 nM
[4]
  IC50, IL-6 secretion by MEF cells, cytokine at 5 ng/ml: 230 nM
